Data taken from the supplement of paper PMC10126150.
± gives the standard deviation of the averaged measurements.

System: ATP
Experiment: switch fluorescence ratio, 500 uM ATP over buffer (Cy3 cluster intensity, sum of 5 cycles each) (fold (ratio)); higher = stronger signal-on switching upon ATP binding; sequences stand for … in TCGTCGGCAGCGTCAGATGTGTATAAGAGACAGTTTTTTTTTTTTTTTTTTTTTTTTT…TC
Conditions: aptamer strand: ATP DNA aptamer (quencher-CACCTGGGGGAGTATTGCGGAGGAAGG + anchor), 100 nM annealed; ATP concentration: 500 uM
Procedure, shortened: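 The quencher-labelled ATP aptamer, at 100 nM, was annealed to Cy3-labelled switching-strand clusters on a modified Illumina MiSeq flow-cell. The clusters were imaged in selection buffer, then after 15 min with 500 uM ATP at 22 °C, and this buffer/ATP cycle ran five times with NaOH stripping and re-annealing between runs. Per-cluster fluorescence ratios, summed target-cycle over summed buffer-cycle Cy3 intensity, were averaged per switch-domain sequence. Clusters outside 100-1000 RFU were excluded.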
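Further: ATP exposure 15 min at 22 °C before imaging.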

Sequence	switch fluorescence ratio
GAAAAAGAGA	0.9736 ± 0.0016
TGCCGACGGG	1.01 ± 0.019
CACAATAGAT	1.02 ± 0.022
GCATCGGGCC	0.981 ± 0.026
GACTTTAAGC	1.01 ± 0.032
TTTTCTACCC	1.03 ± 0.059
CACCGAAATG	1.17 ± 0.1
TTCTTGGGAT	1 ± 0.019
TAAACCGGTT	0.984 ± 0.027
CAAATAATAG	0.977 ± 0.033
CGCTTTGATA	0.991 ± 0.03
AGGGACGGTG	1 ± 0.056
TTCCGGGGTA	1.02 ± 0.032
GACGGGTGAG	0.9917 ± 0.0087
TCGGAGCTTC	4.06 ± 1.4
TTTAAGGGGA	0.996 ± 0.013
AGGGGGGGA	0.9821 ± 0.0079
GTACTGTGTG	1.001 ± 0.0037
TTGTAATTCT	1.167 ± 0.0018
ACCATATGGA	1.02 ± 0.064
GATGGGTACG	1.02 ± 0.042
TAAATGGGTG	1.03 ± 0.028
GGGGGATGTT	0.997 ± 0.026
TGTCGGGATG	1.01 ± 0.022
CAAGGTTTAC	0.9881 ± 0.00047
TTGTTTGGCA	0.991 ± 0.025

Sequence	switch fluorescence ratio
ACGCTCATGT	1.05 ± 0.013
CGGGTGAGTA	1.05 ± 0.08
GAAGGCACGG	1.04 ± 0.047
CGGCTGGTGG	1.02 ± 0.016
TATCATTTAA	1.005 ± 0.009
CGGAGATGGC	1.05 ± 0.038
CGAGAAAGAG	0.983 ± 0.077
ATCGGCATGC	1.19 ± 0.019
TAGGTAGTTG	0.952 ± 0.051
AATTGTGTAC	1.052 ± 0.0018
TACCGCTTGC	2.01 ± 0.53
AGGCTGGCTC	0.98 ± 0.01
GTCGTAATTG	1.02 ± 0.016
CGGCATGAGG	0.972 ± 0.018
AAAGGCGTTA	0.9971 ± 0.0062
AAAGGGGTAC	1.04 ± 0.016
TCGAGTAAAA	0.9902 ± 0.0039
TACAGACGAT	1.3 ± 0.068
TTTACTATTG	1.03 ± 0.03
GGAGTCACTG	1.02 ± 0.017
GGGCAAGAGC	1.04 ± 0.063
CTGTAGTAGC	2.38 ± 1.1
TTTATTTGAC	1.03 ± 0.053
GCGCCGGAG	1.0019 ± 0.00089
TCCACTTATT	1.05 ± 0.093
GACGGCGCTG	0.957 ± 0.049

Sequence	switch fluorescence ratio
TGAGAAGTCA	0.9785 ± 0.0066
GAGGATATGT	0.971 ± 0.035
AAAGATTTGT	0.978 ± 0.016
GAGGATCTTG	1 ± 0.031
AAAGGGAAAT	0.975 ± 0.037
CTGTAAGCGG	1.03 ± 0.03
TGGAGGGGAG	0.9858 ± 0.0062
TCAGTCATGT	0.992 ± 0.028
TTAGGTTCAG	0.9774 ± 0.0084
TGATAATTTG	1.006 ± 0.01
GAAGCTTATA	1.251 ± 0.0019
CGAATAATCA	0.982 ± 0.053
AGAAAAATTG	0.979 ± 0.067
TTTCTGTGCT	0.97009 ± 7e-05
GGGATTCGAG	0.987 ± 0.02
TTTTTCTTTT	0.993 ± 0.029
GCTCCGTGGG	1.93 ± 0.1
AGGGTCTGGG	0.993 ± 0.034
ATCAGGAAAT	1.01 ± 0.017
AGATTACCTT	1.06 ± 0.017
TGTAGGGGCT	0.982 ± 0.026
GTTGTAAGGG	0.998 ± 0.04
TAGAAATTAT	1.19 ± 0.38
CAAAGGTCTC	0.986 ± 0.023
